Results: patent US20140044644A1 (UNIVERSITY OF ZURICH, published 2014)

What was measured:
[1] = target: T1, Aβ42 (synthetic, fibrillar) (UniProt P05067 672-713); assay: ELISA, Aβ42 coated, rat recombinant ankG in solution
T1 construct: domain: Aβ42; also called fibrillar Aβ42; Aβ42 peptide

[2] = target: T2, Aβ40 (synthetic, fibrillar) (UniProt P05067 672-711); assay: ELISA, Aβ40 coated, rat recombinant ankG in solution
T2 construct: domain: Aβ40; also called fibrillar Aβ40; Aβ40 peptide
T2 sequence (P05067 672-711 limits assumed): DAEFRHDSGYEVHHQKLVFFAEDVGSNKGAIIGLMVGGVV

T1 sequence (P05067 672-713 limits assumed): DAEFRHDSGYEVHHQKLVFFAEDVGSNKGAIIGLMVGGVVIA

B1: rat recombinant ankG (ankyrin G) (other, UniProt O70511-3 1-1806, looked up)
chain: MSEEAKEKTAKPAHRKRKGKKSDANASYLRAARAGHLEKALDYIKNGVDVNICNQNGLNALHLASKEGHVEVVSELLQREANVDAATKKGNTALHIASLAGQAEVVKVLVTNGANVNAQSQNGFTPLYMAAQENHLEVVRFLLDNGASQSLATEDGFTPLAVALQQGHDQVVSLLLENDTKGKVRLPALHIAARKDDTKAAALLLQNDTNADIESKSGFTPLHIAAHYGNINVATLLLNRAAAVDFTARNDITPLHVASKRGNANMVKLLLDRGAKIDAKTRDGLTPLHCGARSGHEQVVEMLLDRAAPILSKTKNGLSPLHMATQGDHLNCVQLLLQHNVPVDDVTNDYLTALHVAAHCGHYKVAKVLLDKKANPNAKALNGFTPLHIACKKNRIRVMELLLKHGASIQAVTESGLTPIHVAAFMGHVNIVSQLMHHGASPNTTNVRGETALHMAARSGQAEVVRYLVQDGAQVEAKAKDDQTPLHISARLGKADIVQQLLQQGASPNAATTSGYTPLHLSAREGHEDVAAFLLDHGASLSITTKKGFTPLHVAAKYGKLEVASLLLQKSASPDAAGKSGLTPLHVAAHYDNQKVALLLLDQGASPHAAAKNGYTPLHIAAKKNQMDIATSLLEYGADANAVTRQGIASVHLAAQEGHVDMVSLLLSRNANVNLSNKSGLTPLHLAAQEDRVNVAEVLVNQGAHVDAQTKMGYTPLHVGCHYGNIKIVNFLLQHSAKVNAKTKNGYTPLHQAAQQGHTHIINVLLQNNASPNELTVNGNTALAIARRLGYISVVDTLKVVTEEIMTTTTITEKHKMNVPETMNEVLDMSDDEGEDAITGDTDKYLGPQDLKELGDDSLPAEGYVGFSLGARSASPKISSDRSYTLNRSSYARDSMMIEELLVPSKEQHLPFTREFDSDSLRHYSWAADTLDNVNLVSSPVHSGFLVSFMVDARGGSMRGSRHHGMRIIIPPRKCTAPTRITCRLVKRHKLANPPPMVEGEGLASRLVEMGPAGAQFLGPVIVEIPHFGSMRGKERELIVLRSENGETWKEHQFDSKNEDLSELLNGMDEELDSPEELGTKRICRIITKDFPQYFAVVSRIKQESNQIGPEGGILSSTTVPLVQASFPEGALTKRIRVGLQAQPVPEETVKKILGNKATFSPIVTVEPRRRKFHKPITMTIPVPPPSGEGVSNGYKGDTTPSLRLLCSITGGTSPAQWEDITGTTPLTFIKDCVSFTTNVSARFWLADCHQVLETVGLASQLYRELICVPYMAKFVVFAKTNDPVESSLRCFCMTDDRVDKTLEQQENFEEVARSKDIEVLEGKPIYVDCYGNLAPLTKGGQQLVFNFYSFKENRLPFSIKVRDTSQEPCGRLSFLKEPKTTKGLPQTAVCNLNITLPAHKKAEKADRRQSFTSLALRPQSPCERTDIRMAIVADHLGLSWTELARELNFSVDEINQIRVENPNSLISQSFMLLKKWVTRDGKNATTDALTSVLTKINRIDIVTLLEGPIFDYGNISGTRSFADENNVFHDPVDGWQNETPSGSLESPAQARRITGGLLDRLDDSSDQVRDPITSYLTGEAGKFEANGNHAEVIPEAKAKAYFPESQNDIGKQSIKENLKPKTHGCGRAEEPVSPLTAYQKSLEETSKLVIEDAPKPCVPVGMKKMTRTPADGKARLNLQEEEGSARSEPKQVKSPGEAFTRMTACCYKDLRHSESDSSSEEERRVTTRVIRRRVIIKGEEAKTIPGESVTEEQFTDEEGNLITRKITRKVIRRIGPQERKQDDVQGEGYKVKTKKEIRNVEKKAH
notes: An immunoreactive band of about 190 kDa is reported; also called purified ankG; recombinant ankG protein
[1]
  binding result: no binding (tested: ankG 0-2.5 µg/ml)
[2]
  binding result: no binding (tested: ankG 0-2.5 µg/ml)
